In US7414023B2, “Peptide ligands for prostate specific antigen” (Licentia Ltd., priority 2000, dated 2008):
Bridge positions count the residues as written; N and C are the ends. Square brackets hold non-standard residues; d marks the D form. Ends that are not written are not given here. Peptide text beside a SMILES is read from it. Ahx = NCCCCCC(=O)O

Assays:
PSA [1] = molecular target: T1, PSA (Homo sapiens, UniProt P07288); test: PSA activity measurements with modified peptides, substrate S-2586 (Example 5); type: biochemical; set-up: PSA was purified from human seminal fluid as described previously (3); from tissue; host or cells: human seminal fluid; key to activity of modified peptide (active / inactive): PSA-peptide/PSA ratio above 1.1 was interpreted to be active; below 1.1 as inactive; details: for effect of modification on the activity of the peptide (in words): compared with parent A-1, B-2 or C-4; for activity of modified peptide (active / inactive): from PSA-peptide/PSA ratio
Experimental: PSA activity measurements: The effect of different peptides on the activity of PSA was studied by using chymotrypsin substrate S-2586 (MeO-Suc-Arg-Pro-Tyr-pNA) (Chromogenix, Mölndal, Sweden). 77 pmoles (2 μg) of PSA, substrate and 10 μmoles of different peptides were incubated in Tris-buffer (10 mM Tris and 150 mM NaCl at pH 7.8) with 0.2 mM concentration of the substrate at room temperature. PSA reaction without any peptide was used as basic level control. Reaction was measured after 60 minutes incubation at […] using Multiscan RC photometer (Labsystems, Finland). The effect of the peptides was calculated as a ratio from the OD value of PSA-peptide complex to PSA alone after 60 minutes incubation.

PSA [2] = molecular target: T1, PSA; test: Enzyme activity of PSA with chromogenic substrate S-2586; type: biochemical; set-up: PSA was purified from human seminal fluid as described previously (3); from tissue; host or cells: human seminal fluid; details: for effect on the enzyme activity of PSA (in words) / effect of derivatization or labeling on PSA binding activity, read as effect on PSA enzyme activity (in words): S-2586; for effect on the enzyme activity of PSA (in words): synthetic peptides in 100-fold molar excess; for effect of derivatization or labeling on PSA binding activity, read as effect on PSA enzyme activity (in words): PSA (0.33 mM / 0.33 μM as printed)
Experimental: The enzyme activity of PSA was studied in the presence of peptides alone or together with Zn^2+ by using the chymotrypsin substrate S-2586 (MeO-Suc-Arg-Pro-Tyr-pNA) (Chromogenix, Mölndal, Sweden). […] PSA (333 nM) was incubated with a 1-100-fold molar excess of GST-peptide or 100-fold excess of synthetic peptide in TBS buffer, pH 7.8 containing 0.5 g/L BSA for 1 h at 22° C. The effect of Zn^2+ on the enzyme activity of PSA was studied by including 1-200 μM of ZnCl2 in the reaction buffer. The combined effect of peptides and Zn2+ on the enzyme activity of PSA was studied by incubating PSA (333 nM) with peptide (333 nM) in the buffer containing 1-200 μM Zn^2+ for 1 h. After addition of substrate to a final concentration 0.2 mM, the absorbance was monitored at 5-min intervals for 2 h at 405 nm on a Labsystems Multiskan MCC/340 photometer (Labsystems, Helsinki, Finland). As a control, the effect of wild type GST on the enzyme activity of PSA was tested.
In the experiments, PSA (0.33 μM) was incubated with increasing concentrations of GST-C-4 (0-100-fold molar excess) for 1 h, after which the chromogenic substrate S-2586 was added and enzyme activity was monitored by measuring the absorbance at 405 nm. Data represent mean values from duplicate wells ±SE.
PSA (0.33 μM) was incubated with chemically synthesized peptides (100-fold molar excess) for 1 h, after which the chromogenic substrate S-2586 was added and enzyme activity was monitored by measuring the absorbance at 405 nm.
Because zinc is known to inhibit the enzyme activity of PSA, we further characterized the effect of GST-peptides on the enzyme activity of PSA by assessing the combined effect of peptides and Zn^2+. […] The effect of GST-C-4 and Zn^2+ on enzyme activity was determined by incubating PSA (0.33 μM) with the same molar concentration of GST-C-4 and various concentrations of Zn^2+. The reaction was monitored by measuring absorbance at 405 nm after addition of the chromogenic substrate S-2586. […] Data represent mean values from duplicate wells ±SE.
(§1) Data represent mean values from duplicate wells ±SE.
As control the enzyme activity of PSA alone was measured.
as §1
20 μg of the peptide was iodinated by the Iodogen method. After iodination the peptide was purified by using C18 Sep-Pak column.

PSA [3] = molecular target: T1, PSA; test: GST-peptide IFMA: binding of GST-peptides to PSA captured by MAb 5E4; set-up: PSA was purified from human seminal fluid as described previously (3); from tissue; host or cells: human seminal fluid; details: GST fusion proteins
Experimental: After washing the binding of GST-peptide was quantified by IFMA using an Eu-labelled anti GST antibody as tracer. Data represent mean values from duplicate wells ±standard error (SE).
The solid phase antibodies used in the IFMAs were coated onto microtitration wells at a concentration of 5 μg/mL in TBS for 16 h at 22° C., the solution was discarded and the wells were saturated with 10 g/L bovine serum albumin in TBS for 3 h at 22° C. The antibodies used as tracers were labeled with a Eu^3+ chelate as described previously (26). The assay buffer was 50 mM Tris-HCL, pH 7.7, 150 mM NaCl, 33.3 μM bovine serum albumin, 1 μM bovine globulin.
The binding of individual phage clones to PSA was tested by IFMA (phage IFMA). In the phage IFMA, about 30 ng of PSA was added to MAb 5E4 coated wells for 1 h. After washing (Buffer: 150 mM NaCl, 7.7 mM NaN3, 0.2 g/L Tween 20), 15 μL of phage and 200 μl assay buffer was added. After incubation for 1 h, the wells were washed and filled with 200 μl of assay buffer containing 50 ng europium-labeled anti phage monoclonal antibody recognizing the M13 coat protein of the phage. After incubation for 60 min, the wells were washed 4 times, and enhancement solution (EG&G-Wallac) was added. The fluorescence was quantified with a 1234 DELFIA Research fluorometer (EG&G-Wallac). Binding of GST-peptide to PSA was determined by an IFMA (GST-peptide IFMA) similar to the one for phage peptides except that Eu^3+-labeled antibody to GST was used. Various amounts of GST-peptide or wild type GST were added to wells containing captured PSA in 200 μL of assay buffer and incubated for 1 h. To test the effect of Zn^2+ on the binding between GST-peptide and PSA, various concentrations of Zn^2+ (1-200 μM) were added to the buffer in the incubation step of GST-peptide and PSA. In competition experiments, GST-peptide (167 nM) or wild type GST were first incubated with increasing amounts of PSA (0-333 nM) in 0.5% BSA-TBS buffer for 60 min, then added to wells containing PSA captured by MAb 5E4. After incubation for 1 h the wells were washed and Eu^3+-labeled anti GST antibody was added. After further incubation and washing the bound fluorescence was measured as described above. When assessing the binding of the GST-peptides to other proteinases, including chymotrypsin, cathepsin G, trypsin, and kallikrein, these proteinases were captured by their specific antibodies coated to the microtitration well. Recombinant hK2 was captured by MAb 5E4, which is known to bind hK2 (24). For assessing the binding of the GST-peptides with complexes of PSA, including PSA-ACT and PSA-α1-protease inhibitor (PSA-API) (28), the complexes were captured by antibodies against ACT and API, respectively. After capturing the various proteinases or PSA complexes, GST-peptide was added and binding was monitored as described above for the GST-peptide IFMA.

PSA [4] = molecular target: T1, PSA; test: Inhibition of GST-peptide binding to PSA by chemically synthesized peptides; set-up: PSA was purified from human seminal fluid as described previously (3); from tissue; details: synthetic peptide GACVAYCIEHHCWTCGA in 20-fold molar excess
Experimental: Peptides A1 and C4 were synthesized by standard solid phase Merrifield peptide synthesis using fmoc-chemistry. The peptides were assayed for binding with PSA by studying the ability of the synthetic peptide to inhibit the binding of the corresponding GST peptide with PSA. Synthetic peptide (0-333 nM) and the corresponding GST peptide (167 nM) were incubated with PSA captured by MAb 5E4 for 1 h. After this, the wells were washed, after which Eu^3+-labeled anti GST antibody was added. After further incubation and washing the bound fluorescence was measured as described above.
PSA had been captured by anti-PSA MAb in the microtitration wells. The binding was measured by IFMA.

PSA [5] = molecular target: T1, PSA; test: Proteolytic cleavage of IGF-BP-3 by PSA, IGF-BP-3 IFMA; type: biochemical; set-up: PSA was purified from human seminal fluid as described previously (3); from tissue; host or cells: human seminal fluid; details: PSA 5 μg/mL, 100-fold molar excess of synthetic peptide, IGF-BP-3 70 ng/mL, 16 h at 37° C.; PSA alone 30%
Experimental: The extent of the cleavage of the substrate was quantitated by monitoring the decrease in IGF-BP-3 immunoreactivity due to proteolytic cleavage of it. PSA (5 μg/mL) was incubated with IGF-BP-3 (70 ng/mL) for 16 h at 37° C. with 100-fold molar excess of peptides to PSA and measured for IGF-BP3 immunoreactivity by IFMA as described (33). As control, the peptide was also added to the reaction mixture containing PSA and IGF-BP3 just before starting the immunoassay to quantify the possible interference of the peptide in the IFMA for IGF-BP-3.
In the experiments, PSA (5 μg/mL) in TBS buffer, pH 7.8 alone or with 100-fold molar excess of peptide was incubated with IGF-BP-3 (70 ng/mL) for 16 h at 37° C., after which the concentration of intact IGF-BP-3 was determined by IFMA.

T1 sequence (P07288 25-261): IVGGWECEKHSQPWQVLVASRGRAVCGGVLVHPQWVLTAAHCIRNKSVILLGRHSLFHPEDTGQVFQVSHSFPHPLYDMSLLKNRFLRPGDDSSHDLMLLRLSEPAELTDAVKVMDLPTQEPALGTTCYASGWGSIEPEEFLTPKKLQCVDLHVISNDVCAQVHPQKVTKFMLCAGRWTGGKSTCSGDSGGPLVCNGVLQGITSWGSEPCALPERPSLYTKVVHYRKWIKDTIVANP

Q: “CVFAHNYNYLVC (disulfide 1-12 (inferred)) [Peptide B-2-2]” was tested. Which “effect of modification on the activity of the peptide (in words)” value (“effect of modification” for short) (PSA [1]) did it give?
A: Its value is “did not affect”.

Q: How did the “effect of modification” value (PSA [1]) turn out when “CVFTSNYAFC (disulfide 1-10 (inferred)) [Peptide A-1-4]” was run?
A: The value was “did not affect”.

Q: Which “effect on the enzyme activity of PSA (in words)” value (PSA [2]) does the source give for “Wild type GST: wild type glutathione S-transferase without inserted peptide, control [reference compound]” here?
A: Its value is “did not affect”.

Q: And the “effect on the enzyme activity of PSA (in words)” value (PSA [2]; listed as wild type GST)?
A: Its value is “no effect”.

Q: And the “binding to PSA in GST-peptide IFMA (in words)” value (PSA [3])?
A: The value was “did not bind”.

Q: For “Eu-labelled C4-peptide: C4 peptide labelled with Eu-chelate, C18 fractions 26-28 (CVAYCIEHHCWTC; disulfide 1-13, 5-10; also: Eu-chelate label, site not given here)”, which “effect of Eu-labelled peptide fractions on enzyme activity of PSA” value (PSA [2]; PSA 0.33 μM, 100 μL of C18 fractions 26-28) is on record?
A: The value was “enhanced the enzyme activity of PSA strongly”.

Q: For CLSTCAQSCRISC [Peptide D-1], which “binding to PSA in GST-peptide IFMA (in words)” value (PSA [3]) is on record?
A: Its value is “did not show significant binding”.

Q: With CVAYCIEHHCATC [Peptide C-4-6] as the compound, how does the “activity of modified peptide (active / inactive)” value (from here on “activity … (active / inactive)”) (PSA [1]) read?
A: The value was “inactive”.

Q: For “Tc99m-labeled C4: reduced C4-peptide labeled with 99mTc between thiol-sulfurs (HDP method) (CVAYCIEHHCWTC; also: 99mTc complexed between reduced thiol sulfurs (HDP method))”, which “reduction of binding by technetium labeling” value (PSA [2]; PSA 0.33 μM, 30-fold molar excess, compared with unlabelled C4) is on record?
A: Its value is “about 50%”.

Q: “CVFTSNYNYC (disulfide 1-10 (inferred)) [Peptide A-1-3]” was tested. Which “effect of modification” value (PSA [1]) did it give?
A: The value was “did not affect”.

Q: Which “activity … (active / inactive)” value (PSA [1]) does the source give for “CVAYAIQHHC (disulfide 1-10 (inferred)) [Peptide C-4-4]” here?
A: The value was “inactive”.

Q: For “1251-labeled C4: C4-peptide (CVAYCIEHHCWTC) iodinated by the Iodogen method (not fully specified (residue 4, bridges); cysteine pairing not given here)”, which “effect of derivatization or labeling on PSA binding activity, read as effect on PSA enzyme activity (in words)” value (PSA [2]; 30-fold molar excess) is on record?
A: Its value is “almost completely destroyed its binding activity”.

Q: For `CC[C@H](C)[C@@H]1NC(=O)[C@@H]2CSSC[C@H](NC(=O)[C@H](Cc3c[nH]cn3)NC(=O)[C@H](Cc3c[nH]cn3)NC(=O)[C@H](CCC(=O)O)NC1=O)C(=O)N[C@@H](Cc1c[nH]c3ccccc13)C(=O)N[C@@H]([C@@H](C)O)C(=O)N[C@H](C(=O)O)CSSC[C@H](N)C(=O)N[C@@H](C(C)C)C(=O)N[C@@H](C)C(=O)N[C@@H](Cc1ccc(O)cc1)C(=O)N2` [Peptide C-4] (H-CVAYCIEHHCWTC-OH; disulfide 1-13, 5-10; N-terminus and C-terminus assumed), which “inhibition of the binding of the corresponding GST-peptide to PSA” value (PSA [4]) is on record?
A: Its value is “about 70%”.

Q: What about the “cleavage of IGF-BP-3 by PSA in the presence of peptide” value (PSA [5]) of the same compound?
A: Its value is “about 70%”.

Q: For CVAYCIQHHCWTC [Peptide C-4-3], which “effect of modification” value (PSA [1]) is on record?
A: The value was “did not affect”.

Q: What about the “activity … (active / inactive)” value (PSA [1]) of the same compound?
A: Its value is “active”.

Q: How did the “effect of derivatization or labeling on PSA binding activity, read as effect on PSA enzyme activity (in words)” value (PSA [2]; 30-fold molar excess) turn out when “SKSKSKS—aca-CVAYCIEHHCWTC (SKSKSKS[Ahx]CVAYCIEHHCWTC; not fully specified (bridges); printed as SKSKSKS—aca-CVAYCIEHHCWTC; cysteine pairing not given here) [SKSKSKS (SEQ ID NO:47)-tailed C4]” was run?
A: Its value is “did not affect the binding activity”.

Q: With “CVFAHNYNALVC (disulfide 1-12 (inferred)) [Peptide B-2-3]” as the compound, how does the “effect of modification” value (PSA [1]) read?
A: Its value is “activity remained”.

Q: How did the “effect of modification” value (PSA [1]) turn out when “CVFTSNYAYC (disulfide 1-10 (inferred)) [Peptide A-1-2]” was run?
A: Its value is “did not affect”.
